B1: Bat Picornavirus 2 (nucleic acid)
DNA: GGGTTTTACGAAACCCGTATACACCAGACCTTTTCTCCCCTCCCCCTCCACCTACCTTTTCCCCCTCTTTGGACCGAAACAAGGACACGTAAGTGGAAACGCGATTTTATATGTGGTTGGCCACCACGGAATAACGGCAATTGTCTACATGTGGGAAGTGCAACCTCCCTAGCCGATAACCCCTGACCGGGTGTGTAGGATAGGAAAGGTGCCCACTGTGGGCGACAGGTTATGGTAGAGTGGATACCTAGCCAGGGGCAATGGGACTGCTTTGCATATCCCTAATGAAGTATTGAGATTTCTCTGCTCATTACCCGGTGATGGTTGTGTGGGGGGGGCCCCATACACTAGATCCATACTGCCTGATAGGGTCGCGGCTGGCCGACCATAACCTGTATAGTCAGTTGAATTCAGCCAAG
B2: Icavirus (nucleic acid)
DNA: CGAAGTTTAAGCTAAGCACCCTCGGGCGTTCCCGGATTATGTGATCACATCAATTTGATGGCTGGTCACCACGCAACGCCTGGAGAGATACTCTTACTTTTCTCTTAAGATCCCCGGTCATTTGACGCTTGTAGGATGATAGGGTTATTTTCCACTATAAATACTTTCATACTCTTGGATGTTCTATATCCAAGACGGGAGGACCTACCCCGTACCCCTTAGAGGTGAGATGCCAAGAACAGGCCCTTTCTGTTCTCTCGACAATGGCATCATAGGCAACAAGCATCACACCAAGATTGCTAAGTTTTGTTAAGAGTTCTTCAAGCTATAGGGTGGCTGTAGCGACCTTCTGATGCCTGCGGATTTCCCCACGGAGCGATCCGTGCCACAGGGGCCAAAAGCCACGGCTAACGCCCATCAGGAGCGGCACTTACCCCGTGCCCCACCCTTGAAACTTGAATGTTCACACTGGCTTCTCTCGGCTTTCTGAACTGTCTGCTTGTTGGGGCCCCGAAGGATGCCCTGGAGGTACCCCATTTTATGGGATCTGACCAGGGGACACCTCAGCTCTCTAAGTTGCTGGTGTTTAAAAAACGTCTAAGGGCCCCCACCCCTTAGGTGGAGGGATCCACCTTTCCTTTATTTTTTAAAACTCTTTTATGGTCACAATTGTTT
B3: Ball python nidovirus (nucleic acid)
DNA: CCCCTTCACCCATAGGCACTAGGAGAACAGGATAACCCCTAACGGGGCATCCTGCCTGTGACCTTTCAGATTCGCTAGTTAGATATCTTCACAGACTCTGCTAGGCTTCTGACCCAGTCCGTTCCCAAAGTCCGTTACCGCCCGAGTAGCGCTTAGGCGCGAAAGGGACGGAAGTACCTCCAGTAAGCGAAAGCTGAAGTAAGGGAAATACGGCAAGACTAACTTGTTAGTCTTACAGTGTGGATAACCTGGTAGTTATCCCCGACAAGAGACCTGACTCGATGTGAAAACATCCAACTAGGTTGGCTTCAAACTAGCTACAGGCAGGATATCCCCCAACGGGGCCTCCAAGGAATCGAGAACCAACCCTCATTCCACGTCTGTAGTAAGCAAAAACAGGGGCGATCTTCACCGACACCTCTCACCACAGAGCACACCAACCTCTGTGAAGCCAATTTCCTCGTCCAAGGACAGGTTATTGAGGGTCAACTTTCTTCCGACCAGAAGAAGGGATTTCCTACCAAAAGAAAAACCAAATCCACCAACACCACAAGGTAAAACAACAACTTGTGAAGCCAATACTTAGTCAAAGACTAACTATTGAGGGTCAACTTTCTCTTCAATAGAGAAGGGATTTCCTGGTAAAACAAATAACAACAACTAACATCAGCAACT
modifications: Ball python nidovirus
B4: Hepacivirus J (nucleic acid)
DNA: GCCGCTCCCGAAAGGGAGTCCGGCGCGTCATCCCACTCCGAGGAGTGGGGTGGCGTCCCCGTGTGCCGGGGAACCATGAAGCCTAAGGGCATCCACATTTTAGAATGAACTTGAAGCTTCGTTTCGCTGGCCGGAAAGTCCTGGGTTCCCATGGCCAGGGTTCCGCAGGTGGGTAAATCCCGGTGGGGTTCCATCCAGGATATACGGCAGGCGGGCGTAGTCCGGCGGTTCGGACGACGTGTGGGTCGCCTACGGTGGATTGTTCACAGGATGGGCACTCCGGTGTGAATAGGCCCCGTCAGGGTGCGCTGACGTTAAACTCAGGCCTTGCCTGGTGTTCGGGGAGGATTGCAGGGCCACGCCGCCTCTAAGGGCCGTATGGCACAGTACTTCTTCGGGCGGGTTGTCAAGGCCCTCCAACGCGACACCAGTGCCTCGGCAGGCATGGGGCCACCCAGCTCGGCGTCCCGCACACAGACGGCGTAGGGGAAAATCAGCAATGTGACCCCGGGTGGCATTTTCCTTCTCTCTACTTCCATGCATGATCAACCGCAATC
modifications: Hepacivirus J
B5: Bat Picornavirus 1 (nucleic acid)
DNA: GAAACCCGTATACACCGGACCTTTTCTCCCCTCCCTCTCCACTTACCTTTTTCCCCTCTTCGGCATGAAACAAGGATTATTCAAGTGGAAACGCGATTTAATATGCGGCTGGCCACCGCGGAATAACGGCAATTGTGTATCTGCTGGAAGCCAAGCCTGCCTAGCCGATAGCCCTTGACCGGGTGTGTAGGATAGCCCAGGAACCAGCAATACGCGACAGGTTATGGTAGAGTAGATACCTAGCCAGGGGCAATGGGACTGCATTGCATATCCCTAATGAACCATTGAGATTTCTCTGGTCATTACCCGGTGATGGTTACTAGAGGGGGGCCTCTAGTACTAGATCTATACTGCCTGATAGGGTCGCGGCTGGCCGACCATGACCTGTATAGTCAGTTGATTTGAGCAAT
B6: Avisivirus Pf-CHK1 (nucleic acid, listed as Avisivirus sp.)
DNA: CATTCCCCTTTCCCCAGCCATGGGTTAAATGGCCCCTCACCAGGTTCGGTGCTGTCTAGGCTTCCAGTAAAGAAGTCAACCGAGCATTGAACAAAACCTCAGTGGGTATGGTAGTTAACCCCGTCCACTGGACAACTTTGTCCTCTTAAAAGTGGATCAATCCACCCCAACTCCCCCCCTAGCCACCTGAGCCATGGTGGATAGCAGTGACGAAACTAGGGACCCCAATACCTCTAGTGCCAAGAGAATTCCCCCCTCGCGAGAGGTGCTCTTGGGCCCGAAAGGCTAGTTGGCAGGGTGAAGTGAAGGAAGCTGCTAGCGTGGCAACCTTAAGCGTAGCCCGAAGCTGACCTTAGAGGTTAACCCTAGTGGACCACTGGATGAAGCTGTGGAGGTGGTGGATAGGAAAGTTGGCCACTTGTGAGTAGATGCCCAGAAGGCATAAGGCTGATCTGGGGCCAGTGACTATACCGTTCCGGTAAACCTGGTATAAAAACCATGAAAGCAAGTGGGTTTAAAATTTCTTCTAATTCCTTCATTTCAGTAGTGATAACTGGCAGA
B7: Bat Hp-betacoronavirus (nucleic acid)
DNA: TTAAGCTTCGGCTTGTTGCATAGGACCGGAAAGGTACTATCTACCCTAACTCTTGTAGTTAGACTCTCTAAACGAACTTTAAAACTGGTTGTGTCCTTCAGTAGTCTGTATGGCCATTGGAGGCACACCGGTAATTATCAAATACTAAGAAGATTCATAGTACATCCTTGTCTAGCTTTTGGTTGGCAGTGAGCCTACGGTTTCGTCCGTGTCGCTCACAATTATCCACACAGTAGGTTTCGTCCGCTGTGGTTGAGTTGCTAGTCCGTTGCTGTTTCGTCAGCCATCTACAACTCGACACC
modifications: Bat Hp-betacoronavirus
B8: Antarctic penguin virus A (nucleic acid)
DNA: CTAGGAGACTACGCAGTGGGATAAGATGACTATGATGTCGTACGGGCAGAAGCCAGTACAGTCGAAGTCGAGACCGACGTCGAGGATTTGACTCTGCCTGACCTAGTGCCATC
modifications: chemistry not fully specified; the letters are possibly those of the target site
B9: Rhimavirus A (nucleic acid)
DNA: CGAATTCCGGACATCTCCTTTCGGGGGCGAGCGTCACCGTGCCCCTCATGGAGGCAACTGTGCCTCTAATCGGTGACCCACTGAGAAAATTTTCTTTCTACGTGGCTAAACAATGCAACTTTATAATAACACAAATTTAATGCTTAATCTTAACACCAAAGATTTGAACATATGTTTGGAAAGTGGCACACTTCAAACATTGCATAGTTGCTAGGGGTGAAGTCCCTTTAAGGGGTTGCAGAGGATCTTTCCTCTTTATGAGCGGCTAGGAGTATCTTCTTGATATTATGTGGTCGTGCAACTCACTTCCCAGATGTATGACGGTGTACTAAGCGATTGGAACTAGTCATAACCTCTTTGAATTTTGGTATTGCGAGTCTAGCAGGGGGATATTTACCGCTAAAGGGTGACACACTCGTGAGGGTGGCCTTTGGTGTGTGTATATTTATTCCGCCCATCTTGCATGGGGTGCTAAAATTCTAATGCTGTGAAATAACCATTTTCTGAATACATTCTCTACATTTGGAGTCAAATATGAGGAATGCCACTCAGGTACCCTTGACATGATCTTGGATCTGAGAGTGGGCTAATTATCTAATTATTTGGCGACTTTCTAAAATCTTCTGTTTTTAGTGGTGACAATTTATGGTTATAAA
B10: Basella alba endornavirus (nucleic acid)
DNA: GGAATATGGCTAATCGGCTTATTCTAATCAAACGCAAAAGACTTATGACACAGACCGGACCTGAACGAGGTGATAAAACACCTCGTTCAGGTTCAAAACGTAGAAGATTCATTCCTCCGATTAGAAATACAACTACGTCTAAGCACGATAGAGATGGTATCAAGATCGGTTTTAGACCACGAGAAAATCGGCAAATGAAAGTACAAGTTGGGTGGTTTAAATTACCAAGAACAGTAACATTCAAGAACAACGGCAACCCGTTTGTTACCTCATTTCGTAAATTGTTTAGAAGTAACAAAGATAAATTATTTAATGGTGGGAAGAACCTAAGTACAGTACCAGCCAGAAGTAGTGAAATGACAGAAATGTTTATGTTCATGTCCACGCTAGAGGGCCAATTGTCAATCCAAGATCGAGATCCAAAAATAATCAATAAGTCTATATACATGATAGAGGTA
B11: Bat sapelovirus (nucleic acid, listed as Sapelovirus sp.)
DNA: GACAGGTGTTTTGGAGGGCGGATGACGATATCTGGCTGGCCACCAGGGAATAACGGCAAATGTCTGATCATACGGTTCACAAGTCTACCGGCGATAGTGGTTCAACACCATGTGTAGCAGGGATTCTTGCGTATGTGAAGGCGACAGTGC

The molecules below were run on HEK293 cells. Conditions: luminescence from secreted Gluc in supernatant 24 hours after transfection of HEK293 cells; circular RNA encoding Gluc with the named IRES (UTR truncated to 675 nt).
Format: cell-based, human
B1 was tested, and the Expression was 7.99E+07.
B2 gave an Expression of 4.41E+06.
In the case of B3, the Expression is reported as 8.25E+04.
B4 gave an Expression of 7.65E+04.
With B5 the Expression was 1.85E+07.
For B6, the Expression was 1.19E+05.
B7 showed an Expression of 8.47E+04.
Work on B8 yielded an Expression of 8.42E+04.
B9 was tested, and the Expression was 8.42E+05.
B10 was tested, and the Expression was 7.65E+04.
B11 showed an Expression of 8.05E+04.
